Target: T1, … 3 (SEP3), in vitro produced (Arabidopsis), O22456
T1 chain: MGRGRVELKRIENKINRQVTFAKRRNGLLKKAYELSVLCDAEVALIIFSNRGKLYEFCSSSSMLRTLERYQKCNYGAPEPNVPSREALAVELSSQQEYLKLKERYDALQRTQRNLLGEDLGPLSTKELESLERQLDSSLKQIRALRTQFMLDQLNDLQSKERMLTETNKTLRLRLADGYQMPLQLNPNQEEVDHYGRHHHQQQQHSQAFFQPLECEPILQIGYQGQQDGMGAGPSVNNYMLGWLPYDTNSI
Assay: native gel or EMSA; in vitro produced proteins (wheat germ TnT) mixed with a DY-682 labelled ~100 bp DNA probe containing a CArG-box (SAUR10 probe); protein complexes read from the shifted bands on DNA; anti-FLAG antibody added for supershift where FUL-FLAG was used
Conditions: remark: other sources report otherwise

stoichiometry N: 2
B1: … 3 (SEP3), in vitro produced, O22456 1-251 (natural protein)
chain: MGRGRVELKRIENKINRQVTFAKRRNGLLKKAYELSVLCDAEVALIIFSNRGKLYEFCSSSSMLRTLERYQKCNYGAPEPNVPSREALAVELSSQQEYLKLKERYDALQRTQRNLLGEDLGPLSTKELESLERQLDSSLKQIRALRTQFMLDQLNDLQSKERMLTETNKTLRLRLADGYQMPLQLNPNQEEVDHYGRHHHQQQQHSQAFFQPLECEPILQIGYQGQQDGMGAGPSVNNYMLGWLPYDTNSI
